# Experimental data: patent US10683486B2, “Methods for producing hepatocytes” (BioLamina AB, priority 2015, dated 2020)
# Experiments:
# [1] = system: MAN12 derived hepatocytes; assay: Protein secretion (ELISA) and CYP p450 activity of MAN12 derived hepatocytes; format: cell-based, human; conditions: CYP1A2 and CYP3A activity, days 18, 20 and 24
# Description: (§1) MAN12 cells, a GMP grade cell line, were plated on three different substrates. The first substrate was Matrigel® (MG), and served as a control. The second substrate was coated with 5 micrograms per square centimeter (μg/cm^2) of laminin-521 (LN-521). […] The cells were then differentiated according to the Cameron protocol.
# FIG. 15 is a set of four bar graphs. The first row of two graphs show hepatocyte protein secretion for alpha fetoprotein and albumin as analyzed by ELISA on day 24 of differentiation (n=3). No significant differences were observed across the three matrices. The second row of two graphs show the metabolic function of CYP p450 activity on days 18, 20, and 24 for CYP1A2 and CYP3A activity.
# Looking at both Example 4 and Example 5, the MAN11 and MAN12 cells differentiated efficiently on all three substrates, with the majority of cells (>80%) expressing albumin and CYP3A, as detected by immunostaining.
# [2] = system: primary human hepatocytes (PHHs); assay: Primary human hepatocyte metabolism and protein production on the substrates; format: cell-based; conditions: female PHHs, ELISA
# Description: Cryoplateable human hepatocytes were plated and maintained according to the instructions of vendor Life Technologies. Briefly, cryoplateable hepatocytes were resuscitated in thawing medium (Life Technologies, catalog no. CM3000) and plated onto the pre-coated 96 well plates. Cells-attached to all matrices efficiently and were maintained in an incubator set at 37 degrees Celsius and CO2 levels set to 5%. At 24 hours post-plating, the medium was changed to an incubation medium (catalog no. CM4000).
# To determine whether these large changes in metabolic capacity correlated to increased protein production, the production of albumin and alpha fetoprotein (AFP) from hESC-derived and cryoplatable hepatocytes was quantified using commercially available enzyme-linked immunosorbent assay (ELISA) kits. The different media were collected at denoted time points during hESC differentiation, days 20-26. […] Samples were run in triplicate and measured on a FLUOStar Omega multi-mode microplate reader. Protein production was expressed as ng or μg of protein per milliliter of media, per milligram of protein. The results are shown in FIG. 7, where the expression of these two proteins was measured on days 20, 22, 24, and 26 of differentiation. Despite the large changes in metabolic capacity, no significant differences in albumin or AFP secretion was detected by ELISA. […]
# [3] = system: MAN11 cells; assay: Immunostaining of ALB and CYP3A in MAN11 derived cells (Example 5); format: cell-based, human; conditions: MAN11, Day 18, Cameron protocol
# Description: as §1, with “MAN11 cells, another” for “MAN12 cells, a”, “MAN11 cells, another GMP grade” for “MAN12 cells, a GMP grade”
# FIG. 16 is a set of 15 photomicrographs at 10× magnification, organized into three columns and five rows. […] Row A is a set of phase contrast images of morphology. The scale bars are 200 μm. Row B is a set of photomicrographs showing the immunofluorescent staining of albumin (ALB) on the three different matrices. Row C is a set of photomicrographs showing the immunofluorescent staining of cytochrome P450 3A (CYP3A). Row D is a set of photomicrographs showing the immunofluorescent staining of multidrug resistance protein 1 (MRP1). Row E is a set of photomicrographs showing immunoglobulin G control staining for sheep, mouse, and rabbit antisera. All of these photos were taken on Day 18.
# [4] = system: H9 human embryonic stem cells (hESCs); assay: Immunofluorescent staining of OCT4 and Nanog in pluripotent stem cells on the substrates prior to differentiation; format: cell-based; conditions: 24 hours post-replating
# Description: H9 human embryonic stem cells (hESCs) were cultured and maintained in a humidified 37° C., 5% CO2 incubator. Three different substrates were then prepared in 96-well plates. The first substrate was pre-coated with Matrigel® (MG), and served as a control. The second substrate was coated with 5 micrograms per square centimeter (μg/cm^2) of laminin-521 (LN-521).
# […] Cell cultures were fixed in 100% ice-cold methanol at −20 degrees Celsius for 30 minutes, and adjacent cells were pre-washed twice with PBS buffer at room temperature. Cell monolayers were blocked with 0.1% PBS-Tween solution containing 10% bovine serum albumin for 1 hour. Subsequently, the monolayers were incubated with primary antibodies diluted in PBS-0.1% Tween/1% BSA at 4 degrees Celsius overnight. After 24 hours, the primary antibodies were removed and the fixed monolayers were washed three times with PBS-0.1% Tween/1% BSA. Cells were incubated with appropriate secondary antibodies diluted in PBS-0.1% Tween/1% BSA for one hour at room temperature and washed with three times with PBS. Cultures were then mounted with PermaFluor™ Aqueous Mounting Medium and counterstained with NucBlue Hoescht 33342. […] The images were processed through Zeiss Axiovision SE 64 Rel 4.8 and analyzed using Zeiss Axiovision version 4.9.1.0. […]
substance,measurement,setting,value
"LN-521: substrate coated with 5 μg/cm^2 of laminin-521, the protein formed by joining α5, β2 and γ1 chains",metabolic activity of MAN12 derived hepatocytes,[1],improved metabolic activity
same,albumin production,[2],enhanced
same,"ALB, percentage of positive cells and standard deviation",[3],89.2% ± 6.0
same,"CYP3A, percentage of positive cells and standard deviation",[3],90.8% ± 9.9
same,Expression Levels Nanog,[4],88.7% ± 5.4
same,Expression Levels OCT4,[4],93.2% ± 5.9
